# Laboratory results taken from IntAct's records for PubMed 23039992.
# B1: Tumor necrosis factor receptor superfamily member 11B (Mus musculus), O08712 (parent)
# chain: MNKWLCCALLVLLDIIEWTTQETLPPKYLHYDPETGHQLLCDKCAPGTYLKQHCTVRRKTLCVPCPDHSYTDSWHTSDECVYCSPVCKELQSVKQECNRTHNRVCECEEGRYLEIEFCLKHRSCPPGSGVVQAGTPERNTVCKKCPDGFFSGETSSKAPCIKHTNCSTFGLLLIQKGNATHDNVCSGNREATQKCGIDVTLCEEAFFRFAVPTKIIPNWLSVLVDSLPGTKVNAESVERIKRRHSSQEQTFQLLKLWKHQNRDQEMVKKIIQDIDLCESSVQRHLGHSNLTTEQLLALMESLPGKKISPEEIERTRKTCKSSEQLLKLLSLWRIKNGDQDTLKGLMYALKHLKTSHFPKTVTHSLRKTMRFLHSFTMYRLYQKLFLEMIGNQVQSVKISCL
# Variants of: B1
# Conditions: with Tnfsf11, O35235-1
# Tnfsf11, O35235-1, sequence (O35235 whole entry): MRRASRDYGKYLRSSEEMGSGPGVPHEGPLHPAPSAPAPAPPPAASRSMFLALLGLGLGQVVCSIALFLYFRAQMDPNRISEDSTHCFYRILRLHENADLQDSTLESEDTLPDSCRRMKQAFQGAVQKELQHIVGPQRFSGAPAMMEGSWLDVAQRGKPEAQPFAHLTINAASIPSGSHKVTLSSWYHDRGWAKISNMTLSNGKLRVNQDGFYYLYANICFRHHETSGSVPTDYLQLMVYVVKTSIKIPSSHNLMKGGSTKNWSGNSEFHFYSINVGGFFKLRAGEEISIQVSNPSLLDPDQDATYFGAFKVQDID
row,Variant,effect of a mutation on the interaction
1,F117L,increasing interaction strength

# Variants of: B1
# Conditions: with Tnfsf11, O35235-1
# Remark: another data set of the same source
row,Variant,effect of a mutation on the interaction
1,F117A,increasing interaction strength
